Experimental findings from US20030135878 are described below.

Numbering of substitutions follows the chain as printed.

Data set [1] addresses T1, Wheat alpha-amylase/trypsin inhibitor (spot #3), P16851.
T1 chain: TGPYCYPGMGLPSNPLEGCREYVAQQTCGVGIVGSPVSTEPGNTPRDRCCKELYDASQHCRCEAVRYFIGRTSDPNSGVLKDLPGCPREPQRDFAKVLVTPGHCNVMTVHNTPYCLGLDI

Data set [2] has as its target T2, Wheat alpha-amylase pI 5.23 inhibitor (spot #4), P01084.
T2 chain: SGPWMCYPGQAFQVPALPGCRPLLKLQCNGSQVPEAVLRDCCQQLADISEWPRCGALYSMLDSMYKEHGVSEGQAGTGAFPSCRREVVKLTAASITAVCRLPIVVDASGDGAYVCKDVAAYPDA

Data set [3] deals with wheat gliadin homolog of oat avenin (spot #2).
Data set [4] addresses T3, Wheat alpha-amylase pI 6.66 inhibitor (spot #1), P01085.
T3 chain: T2 chain with G19A, K25R, D47H, P52C, V70A, S71Q, S82R

B1: wheat thioredoxin h (WTRXh), 13.5-kDa protein encoded by the 384-bp wtrxh fragment (protein)
chain: MAASAATATATAAAVGAGEVISVHSLEQWTMQIEEANAAKKLVVIDFTASWCGPCRIMAPIFADLAKKFPAAVFLKVDVDELKPIAEQFSVEAMPTFLFMKEGDVKDRVVGAIKEELTTKVGLHAAQ
Regarding B1, the “redox state by mBBr/2D IEF/SDS-PAGE, homozygote overexpressing thioredoxin h vs. null segregant” value is “five proteins were observed to be more highly reduced in extracts of the homozygote (spots 1-5, FIG. 29)” in data set [1]; “five proteins were observed to be more highly reduced in extracts of the homozygote (spots 1-5, FIG. 29)” in data set [2]; “five proteins were observed to be more highly reduced in extracts of the homozygote (spots 1-5, FIG. 29)” in data set [3]; “five proteins were observed to be more highly reduced in extracts of the homozygote (spots 1-5, FIG. 29)” in data set [4].
